One block for each binder: values may come before it.
What was measured:
[1] = target: T1, 人4-1BB胞外段 (human 4-1BB extracellular domain, HEK293-expressed, Example 4) (human, UniProt Q07011 24-186); experiment: ELISA, human 4-1BB ECD coated, anti-human IgG HRP
T1 construct: also called 人4-1BB抗原; CD137

[2] = target: T2, 人PD-L1全长, 表达于CHO-K1细胞 (CHO-K1/hPD-L1; CHO-K1/PDL1/TCR) (human, UniProt Q9NZQ7 19-290); experiment: flow cytometry on CHO-K1/hPD-L1 cells, 4-parameter logistic fit
T2 construct: Full-length human PD-L1 transfected into CHO-K1 cells; also called 细胞表面人PD-L1抗原
T2 sequence (Q9NZQ7 19-290 limits assumed): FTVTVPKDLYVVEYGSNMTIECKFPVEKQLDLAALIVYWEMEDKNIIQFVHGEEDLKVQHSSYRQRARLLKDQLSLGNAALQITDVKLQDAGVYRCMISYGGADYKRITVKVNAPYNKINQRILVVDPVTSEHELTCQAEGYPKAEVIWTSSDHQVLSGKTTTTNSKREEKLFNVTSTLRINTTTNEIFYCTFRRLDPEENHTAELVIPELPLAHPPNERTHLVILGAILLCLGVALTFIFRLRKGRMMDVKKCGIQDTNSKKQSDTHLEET

[3] = target: T2, 人PD-L1全长, 表达于CHO-K1细胞 (CHO-K1/hPD-L1; …); experiment: flow cytometry on CHO-K1/hPD-L1 cells, anti-human FITC
[4] = target: T3, 人4-1BB胞外段, 带鼠Fc标签 (human 4-1BB extracellular domain with mouse Fc tag, Example 5) (human, UniProt Q07011 24-186); experiment: bridging ELISA: PD-L1-His coated, bispecific, then 4-1BB-mouse Fc, anti-mouse HRP
T3 construct: also called 抗原人4-1BB; not shown: mouse Fc tag

[5] = target: T4, 人4-1BB全长, 表达于细胞 (CHO-K1/h4-1BB; HEK-293/NFκB-Luci/4-1BB) (human, UniProt Q07011 24-255); experiment: flow cytometry on CHO-K1/h4-1BB cells
T4 construct: also called 细胞表面人4-1BB抗原
T4 sequence (Q07011 24-255 limits assumed): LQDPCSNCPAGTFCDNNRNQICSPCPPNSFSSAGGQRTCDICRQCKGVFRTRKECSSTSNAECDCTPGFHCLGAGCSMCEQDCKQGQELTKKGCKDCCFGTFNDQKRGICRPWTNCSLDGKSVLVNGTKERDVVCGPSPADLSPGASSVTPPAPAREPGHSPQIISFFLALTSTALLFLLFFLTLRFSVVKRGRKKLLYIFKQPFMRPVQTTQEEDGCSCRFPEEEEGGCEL

[6] = target: T5, 猴4-1BB胞外段 (monkey 4-1BB extracellular domain) (monkey (猴), UniProt Q07011 24-186 (human entry)); experiment: ELISA, monkey 4-1BB ECD coated, anti-human HRP
T5 construct: also called 猴4-1BB抗原
T5 chain: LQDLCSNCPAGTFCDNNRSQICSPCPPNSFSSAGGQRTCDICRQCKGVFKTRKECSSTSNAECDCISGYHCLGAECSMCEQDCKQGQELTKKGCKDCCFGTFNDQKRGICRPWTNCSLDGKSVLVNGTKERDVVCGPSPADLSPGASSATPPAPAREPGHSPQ

[7] = target: T6, 猴PD-L1胞外段 (monkey PD-L1 extracellular domain) (monkey (猴), UniProt Q9NZQ7 19-238 (human entry)); experiment: ELISA, monkey PD-L1 ECD coated, anti-human HRP
T6 construct: also called 猴PD-L1抗原
T6 sequence (Q9NZQ7 other isoform, or with tags, fused parts or gaps): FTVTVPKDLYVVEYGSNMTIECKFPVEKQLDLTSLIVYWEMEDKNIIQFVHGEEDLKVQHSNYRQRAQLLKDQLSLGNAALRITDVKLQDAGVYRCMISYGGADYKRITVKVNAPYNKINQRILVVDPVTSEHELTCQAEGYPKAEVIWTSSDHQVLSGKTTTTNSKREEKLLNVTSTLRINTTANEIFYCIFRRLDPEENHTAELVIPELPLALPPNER

binding result [1]: binds
EC50 [2]: 5.82 nM
FACS fluorescence signal at 0.308 nM (name of read-out not given) [3]: 617
FACS fluorescence signal at 0.617 nM (name of read-out not given) [3]: 889
FACS fluorescence signal at 1.851 nM (name of read-out not given) [3]: 1450
FACS fluorescence signal at 5.555 nM (name of read-out not given) [3]: 4430
FACS fluorescence signal at 16.666 nM (name of read-out not given) [3]: 8220
FACS fluorescence signal at 50 nM (name of read-out not given) [3]: 8490
binding result [4]: binds
binding result [5]: binds
B1: 抗人PD-L1/4-1BB双特异性抗体 结构B (anti-4-1BB scFv-(G4S)2-IgG4 Fc-(G4S)3-anti-PD-L1 Fab) (bispecific antibody)
heavy: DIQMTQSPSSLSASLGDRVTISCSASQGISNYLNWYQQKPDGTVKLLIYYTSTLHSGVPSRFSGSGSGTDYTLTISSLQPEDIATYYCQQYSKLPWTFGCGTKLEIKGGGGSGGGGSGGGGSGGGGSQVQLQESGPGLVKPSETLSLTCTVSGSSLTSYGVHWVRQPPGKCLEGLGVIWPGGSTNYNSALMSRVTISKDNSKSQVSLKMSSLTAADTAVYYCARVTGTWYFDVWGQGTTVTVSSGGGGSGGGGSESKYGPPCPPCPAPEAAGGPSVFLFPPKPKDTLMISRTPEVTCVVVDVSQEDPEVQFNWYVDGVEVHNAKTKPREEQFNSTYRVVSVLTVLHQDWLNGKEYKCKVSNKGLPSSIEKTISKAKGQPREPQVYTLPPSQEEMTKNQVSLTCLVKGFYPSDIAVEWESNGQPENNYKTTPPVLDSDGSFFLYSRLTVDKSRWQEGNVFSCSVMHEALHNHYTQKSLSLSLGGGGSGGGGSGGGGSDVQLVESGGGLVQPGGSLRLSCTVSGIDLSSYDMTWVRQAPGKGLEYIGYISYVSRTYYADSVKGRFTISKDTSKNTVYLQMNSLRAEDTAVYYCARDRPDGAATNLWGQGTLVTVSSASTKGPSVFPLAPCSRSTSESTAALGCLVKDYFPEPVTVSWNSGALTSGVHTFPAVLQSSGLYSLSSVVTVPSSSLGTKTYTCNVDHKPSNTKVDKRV
light: DIQMTQSPSTLSASVGDRVTITCQSSQNVYSNNRLSWYQQKPGKAPKLLIYWTSFLASGVPSRFSGSGSGTEFTLTISSLQPDDFATYYCAGGYSGNLYTFGQGTKLEIKRTVAAPSVFIFPPSDEQLKSGTASVVCLLNNFYPREAKVQWKVDNALQSGNSQESVTEQDSKDSTYSLSSTLTLSKADYEKHKVYACEVTHQGLSSPVTKSFNRGEC
notes: Two heavy and two light chains; human IgG4 Fc; also called B结构

EC50 [2]: 6.59 nM
FACS fluorescence signal at 0.308 nM (name of read-out not given) [3]: 543
FACS fluorescence signal at 0.617 nM (name of read-out not given) [3]: 708
FACS fluorescence signal at 1.851 nM (name of read-out not given) [3]: 1390
FACS fluorescence signal at 5.555 nM (name of read-out not given) [3]: 3820
FACS fluorescence signal at 16.666 nM (name of read-out not given) [3]: 8710
FACS fluorescence signal at 50 nM (name of read-out not given) [3]: 8870
B2: 抗人PD-L1/4-1BB双特异性抗体 D3 (结构D, D1的突变体, linker A(EAAAK)4ALE) (bispecific antibody, human IgG4 S228P, kappa, F234A L235A)
heavy: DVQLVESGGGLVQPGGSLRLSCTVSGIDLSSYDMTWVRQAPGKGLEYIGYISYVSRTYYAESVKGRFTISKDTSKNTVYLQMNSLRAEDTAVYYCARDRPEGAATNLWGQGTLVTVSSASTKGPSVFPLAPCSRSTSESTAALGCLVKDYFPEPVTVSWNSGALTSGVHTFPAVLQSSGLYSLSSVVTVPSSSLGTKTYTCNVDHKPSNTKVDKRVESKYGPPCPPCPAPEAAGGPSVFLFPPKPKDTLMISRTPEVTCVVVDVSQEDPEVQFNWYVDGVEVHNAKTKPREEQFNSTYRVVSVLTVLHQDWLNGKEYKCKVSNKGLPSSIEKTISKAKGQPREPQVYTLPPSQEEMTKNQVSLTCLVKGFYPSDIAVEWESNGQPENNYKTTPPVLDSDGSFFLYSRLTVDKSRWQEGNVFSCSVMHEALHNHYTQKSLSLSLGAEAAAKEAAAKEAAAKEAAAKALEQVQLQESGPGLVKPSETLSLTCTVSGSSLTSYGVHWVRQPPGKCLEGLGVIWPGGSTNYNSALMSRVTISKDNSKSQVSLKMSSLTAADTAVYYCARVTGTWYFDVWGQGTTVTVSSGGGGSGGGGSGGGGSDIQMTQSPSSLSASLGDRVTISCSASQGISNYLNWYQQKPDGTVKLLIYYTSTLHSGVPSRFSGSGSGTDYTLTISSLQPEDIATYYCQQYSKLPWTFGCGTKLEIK
light: B1 light
notes: Anti-PD-L1 IgG4 with an anti-4-1BB scFv at the C-terminus of each heavy chain

binding result [6]: binds
binding result [1]: binds
EC50 [2]: 7.6 nM
binding result [7]: binds
FACS fluorescence signal at 0.308 nM (name of read-out not given) [3]: 516
FACS fluorescence signal at 0.617 nM (name of read-out not given) [3]: 654
FACS fluorescence signal at 1.851 nM (name of read-out not given) [3]: 1190
FACS fluorescence signal at 5.555 nM (name of read-out not given) [3]: 2950
FACS fluorescence signal at 16.666 nM (name of read-out not given) [3]: 8400
FACS fluorescence signal at 50 nM (name of read-out not given) [3]: 8920
binding result [4]: binds
binding result [5]: binds
B3: 抗人PD-L1/4-1BB双特异性抗体 D6 (结构D, D2的突变体, linker (G4S)3) (bispecific antibody, human IgG4 S228P, kappa, F234A L235A)
heavy: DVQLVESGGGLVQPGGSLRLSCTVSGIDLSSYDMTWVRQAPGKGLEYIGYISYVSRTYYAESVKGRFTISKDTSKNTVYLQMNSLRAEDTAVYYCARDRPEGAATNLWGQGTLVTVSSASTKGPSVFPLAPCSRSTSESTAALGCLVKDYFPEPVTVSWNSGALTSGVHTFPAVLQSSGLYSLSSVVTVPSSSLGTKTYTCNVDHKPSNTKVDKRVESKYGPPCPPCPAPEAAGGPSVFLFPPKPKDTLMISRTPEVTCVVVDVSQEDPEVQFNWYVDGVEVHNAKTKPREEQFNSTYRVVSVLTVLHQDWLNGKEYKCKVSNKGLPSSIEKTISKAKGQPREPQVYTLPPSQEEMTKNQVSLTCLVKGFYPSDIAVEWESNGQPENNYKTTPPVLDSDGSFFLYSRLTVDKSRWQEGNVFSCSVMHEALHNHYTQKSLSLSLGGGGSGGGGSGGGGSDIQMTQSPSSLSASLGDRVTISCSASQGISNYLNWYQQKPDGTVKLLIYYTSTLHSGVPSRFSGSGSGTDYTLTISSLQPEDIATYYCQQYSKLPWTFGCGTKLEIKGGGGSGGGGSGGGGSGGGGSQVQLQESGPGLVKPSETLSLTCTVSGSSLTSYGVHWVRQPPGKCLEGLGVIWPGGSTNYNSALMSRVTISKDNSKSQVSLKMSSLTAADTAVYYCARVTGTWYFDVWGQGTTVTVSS
light: B1 light
notes: as for B2

Reference: patent CN115677859A (HEFEI HANKEMAB BIOTECHNOLOGY CO LTD; ANHUI ANKE …, dated 2023)
